Laboratory results as given in the supplement of paper PMC10724198.
± gives the standard deviation of the averaged measurements.

The sequences below were run on Saccharomyces cerevisiae (assay: protein stability index of tFT-peptide fusion (C-terminal peptide) (PSI (0-1 scale)); higher = more stable (slower turnover)). Conditions: genetic background: das1 deletion; temperature: 30 C.
Procedure: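 MPS profiling in S. cerevisiae of the yeast C-terminome library: the last 12 aa of each annotated ORF are fused to the C-terminus of a sfGFP-mCherry timer, after a GGGS linker. Cells are FACS-sorted into 8 mCherry/sfGFP bins and deep-sequenced. PSI runs from 0 (unstable) to 1 (stable); wild type and das1Δ backgrounds, two technical replicates each.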

Sequence	protein stability index
LVEILDCEIRTL [MIC60 C-terminal 12 aa]	0.6827 ± 0.0058
LVFALLTCFEDG [YDR209C C-terminal 12 aa]	0.481 ± 0.0089
LVGGGIKKSGKK [TMA7 C-terminal 12 aa]	0.67 ± 0.016
LVHFLGLILNNF [YNL171C C-terminal 12 aa]	0.68 ± 0.018
LVHIKMENGIVS [IZH2 C-terminal 12 aa]	0.65319 ± 0.00027
LYGPSKTRKFFD [VMA4 C-terminal 12 aa]	0.724 ± 0.027
LYGQRFLATGFQ [AIM19 C-terminal 12 aa]	0.714 ± 0.0097
LYLLLARVFEIW [SNF11 C-terminal 12 aa]	0.567 ± 0.059
LYQCRMPCLYSI [YGL193C C-terminal 12 aa]	0.659 ± 0.026
LYWDPSWITRQL [SNF8 C-terminal 12 aa]	0.716 ± 0.019
MDPMSPLNKDVS [YMR196W C-terminal 12 aa]	0.692 ± 0.0081
MFTSDKKTEQTT [URC2 C-terminal 12 aa]	0.708 ± 0.0052
MGSSRRTSLDFF [YBR071W C-terminal 12 aa]	0.7242 ± 0.0015
MIDELDYNINFA [UGA3 C-terminal 12 aa]	0.7 ± 0.013
MILKVSLECAVS [YDL009C C-terminal 12 aa]	0.468 ± 0.0021
MKKPRKSKKAAN [KRE33 C-terminal 12 aa]	0.716 ± 0.018
MKTRLERERGLV [PTC4 C-terminal 12 aa]	0.694 ± 0.027
MMAVDTDVDMDA [YPL071C C-terminal 12 aa]	0.668 ± 0.012
MMTRENMDMGER [RRP3 C-terminal 12 aa]	0.669 ± 0.044
MNAAENEVKKEK [SUR2 C-terminal 12 aa]	0.688 ± 0.016
MNGIPREAFVQF [MEX67 C-terminal 12 aa]	0.68 ± 0.0078

Sequence	protein stability index
MSNSNSVCCTLM [STE18 C-terminal 12 aa]	0.736 ± 0.01
MSSTDWVTKPTY [AFG1 C-terminal 12 aa]	0.6977 ± 0.0026
MTKISILKPFLH [CDC6 C-terminal 12 aa]	0.711 ± 0.0076
MYSSKDNPASPK [TAF1 C-terminal 12 aa]	0.693 ± 0.021
NAEKAAGQKKED [YLL053C C-terminal 12 aa]	0.695 ± 0.034
NAIEEELAKMKL [THR4 C-terminal 12 aa]	0.6922 ± 0.0025
NDTIKLNQSIYS [ASK10 C-terminal 12 aa]	0.701 ± 0.02
NEALVKTTKQKL [LPX1 C-terminal 12 aa]	0.703 ± 0.013
NEEMAEISNPFR [FEN2 C-terminal 12 aa]	0.699 ± 0.019
NEEMIRKLKAAK [JID1 C-terminal 12 aa]	0.674 ± 0.015
NEPTNSDIVELD [UBA2 C-terminal 12 aa]	0.693 ± 0.023
NFKNSSAKSKRS [PKH2 C-terminal 12 aa]	0.682 ± 0.014
NFLNLLSPLPSV [TOM7 C-terminal 12 aa]	0.72262 ± 0.00027
NGTAKSAQSTTV [YAR019W-A C-terminal 12 aa]	0.67513 ± 0.00026
NGWHELALPQSR [SWM1 C-terminal 12 aa]	0.74 ± 0.0028
NIATIASERSRP [YPL102C C-terminal 12 aa]	0.723 ± 0.046
NIIGLLSNDEEH [CBP2 C-terminal 12 aa]	0.6944 ± 0.0063
NKDTMQLFRAYL [CIN2 C-terminal 12 aa]	0.7695 ± 0.0014
NKPKGPLRKRRT [TWF1 C-terminal 12 aa]	0.7 ± 0.017
NKREFIDSLRPH [AIM20 C-terminal 12 aa]	0.71 ± 0.013
NLDGQIHYLQRL [GAL7 C-terminal 12 aa]	0.706 ± 0.012

Sequence	protein stability index
NMVNFESEKVNR [YVH1 C-terminal 12 aa]	0.706 ± 0.02
NNDILQNKKLHQ [KIP1 C-terminal 12 aa]	0.686 ± 0.034
NNLHLPGNTGFF [PDC2 C-terminal 12 aa]	0.728 ± 0.0081
NPEATTKPKPRL [PTC5 C-terminal 12 aa]	0.752 ± 0.0099
NPNSLPLQPIAN [MSC2 C-terminal 12 aa]	0.704 ± 0.018
NRVPKWMKLSKK [UBX4 C-terminal 12 aa]	0.676 ± 0.012
NRVVLVDHNSSS [IRS4 C-terminal 12 aa]	0.72 ± 0.024
NSDTIARIATVM [DAS1 C-terminal 12 aa]	0.685 ± 0.011
NSIISLEALDAI [SMX2 C-terminal 12 aa]	0.72 ± 0.039
NSNELEYAPTAN [LIA1 C-terminal 12 aa]	0.686 ± 0.022
NTESSCGFFQWV [APN2 C-terminal 12 aa]	0.72737 ± 0.00023
NTFRKIKGDKKN [MDJ1 C-terminal 12 aa]	0.687 ± 0.068
NTFVLNMSRFII [YDL068W C-terminal 12 aa]	0.6739 ± 0.003
NTHDLHLRPGTY [YBL005W-A C-terminal 12 aa]	0.6794 ± 0.00083
NTTHYNASLLRQ [PHO5 C-terminal 12 aa]	0.688 ± 0.022
NTVELLNIPLTS [YLR345W C-terminal 12 aa]	0.6555 ± 0.0055
PAAIKQAIASNV [TRX2 C-terminal 12 aa]	0.659 ± 0.0072
PAAKKVVELTQN [LSC2 C-terminal 12 aa]	0.685 ± 0.012
PDCTVCSNSNSN [UBA3 C-terminal 12 aa]	0.705 ± 0.0088
PEGEAPEAFSMK [SEC14 C-terminal 12 aa]	0.7068 ± 0.0023
PEGGDGPKYTLT [CIR2 C-terminal 12 aa]	0.688 ± 0.018

Sequence	protein stability index
PEKWSASLKKFK [THI6 C-terminal 12 aa]	0.731 ± 0.017
PEMDKEKKKFYL [RPF1 C-terminal 12 aa]	0.724 ± 0.04
PEVIDTRKDNSN [COX11 C-terminal 12 aa]	0.687 ± 0.012
PFGKKKTGLFSL [PRM10 C-terminal 12 aa]	0.723 ± 0.036
PGDTLIEVIDLT [WSS1 C-terminal 12 aa]	0.692 ± 0.025
PGLRRQHTRNFL [YMR294W-A C-terminal 12 aa]	0.697 ± 0.01
PHVKLFETTSGL [IRC5 C-terminal 12 aa]	0.718 ± 0.021
PKGDIEASIAEE [MPH3 C-terminal 12 aa]	0.6877 ± 0.00033
PKWCSTMCSTAT [YDR445C C-terminal 12 aa]	0.69 ± 0.03
PLCYWHYSADTY [YIL105W-A C-terminal 12 aa]	0.7217 ± 0.0058
PLITPSGFRSSL [YNR025C C-terminal 12 aa]	0.707 ± 0.0084
PNLSRANFTRNK [RSA1 C-terminal 12 aa]	0.695 ± 0.019
PPFDFRLLFLLV [YGL165C C-terminal 12 aa]	0.542 ± 0.033
PTVTRKTPDYFL [PPH22 C-terminal 12 aa]	0.696 ± 0.0091
QCNFSYLESNYF [CTS1 C-terminal 12 aa]	0.689 ± 0.019
QFDSENVILSVI [TRS120 C-terminal 12 aa]	0.716 ± 0.023
QHDEKPFYKRMF [HXT8 C-terminal 12 aa]	0.723 ± 0.026
QHLKTHKKHGDF [MSN4 C-terminal 12 aa]	0.719 ± 0.0085
QIILQKEGVLDK [KCC4 C-terminal 12 aa]	0.704 ± 0.0035
